From patent EP4442275A1, “ANTI-TYPE II COLLAGEN ANTIBODIES” (ModiQuest B.V., priority 2023, dated 2024)
“Also recorded” adds a separate entry of the source.

B1: [^111In]In-DTPA-MQ4.112hz_3_1: MQ4.112hz_3_1 conjugated with DTPA and labeled with 111In (conjugate)
VH: DVQLQESGPGLVKPSETLSLTCAVSGYSITSDYYWHWIRQFPGKGLEWMGYISYDGSNNYNPSLKSRVTISVDTSKNQFSLKLSSVTAADTAVYYCARDDDAMDYWGQGTLVTVSS
VL: DIQMTQSPSSLSASVGDRVTITCRASQDISNYLNWYQQKPGKAPKLLIYYTSRLHSGVPSRFSGSGSGTDFTFTISSLQPEDIATYYCQQGNTLPPTFGQGTKVEIK
B2: DTPA-IrDye 800CW anti-COLL II (MQ4.112 hz3_1): MQ4.112hz_3_1 dually conjugated with DTPA and IrDye 800CW, substitution ratio IrDye 800CW= 1.83 (conjugate)
VH: B1 VH
VL: B1 VL

Experiments:
human cartilage explants [1] = target: T1, human cartilage explants (Homo sapiens, UniProt P02458); assay: Binding of 111In-labeled DTPA-conjugated antibodies to human cartilage explants (gamma counting); conditions: Figure 8
T1 construct: From surgical waste material obtained after total knee arthroplasty; from tissue; host or cells: human articular cartilage from joint replacement surgery of OA patients

human cartilage = target: T2, human cartilage (Homo sapiens, UniProt P02458); assay: Ex vivo binding to human cartilage with different stages of OA-induced damage (Odyssey CLX imaging)
T2 construct: From surgical waste material obtained after total knee arthroplasty; from tissue; host or cells: human articular cartilage from joint replacement surgery of OA patients
Protocol: From surgical waste material obtained after total knee arthroplasty (Patient number SMK1180), human cartilage from the macroscopically preserved, medium damage and severe damaged regions were isolated with a surgical blade. Human cartilage explants were overnight incubated in DMEM/F12 without FBS supplemented with 10.000 U/mL penicillin/streptomycin at 37°C with 5% CO2. Punches (6 mm) were generated using a biopsy punch. Three explants/damage condition were divided over sterile FACS tubes and exposed 4 µg/ml DTPA-IrDye 800CW isotype (2.201a) (substitution ratio IrDye 800CW= 1.54) or DTPA-IrDye 800CW anti-COLL II antibody (MQ4.112 hz3_1) (substitution ratio IrDye 800CW= 1.83) in DMEM/F12 media supplemented with 0.5% BSA (final volume was 1 ml) for 4 H on a roller at 37°C. After this incubation the samples were transferred to 50 ml falcon tubes (1 tube/condition, 3 punches/tube) and washed with PBS (50 ml) at 37°C (1x 30 min), followed by an o/n wash with PBS on a shaker at 4°C.
The explants were transferred to the bottom of wells of a 96-well plate to measure the cartilage associated fluorescence with the Odyssey CLX near infrared imaging system (Figure 11). The cartilage was fixed in formalin for 4 H and thereafter transferred to 70% ethanol until processed/embedded in paraffin. […]

human cartilage explants [2] = target: T1, human cartilage explants; assay: Binding of DTPA-IrDye 800CW conjugated antibodies to human cartilage with or without trypsin (Odyssey CLX imaging); conditions: 4 µg/ml, 4 H, 37°C; preserved regions of OA cartilage; Figure 9
Protocol: From surgical waste material obtained after total knee arthroplasty (Patient number SMK1186), human cartilage from the macroscopically preserved regions was isolated with a surgical blade, and 6 mm punches were made using a biopsy punch. Human cartilage explants were overnight incubated in DMEM/F12 without FBS supplemented with 10.000 U/mL penicillin/streptomycin at 37°C with 5% CO2. Half of the explants were incubated for 1 H with 2.5% Trypsin-EDTA in PBS at 37°C on a roller in a 50 ml falcon tube. The other half was incubated under the same conditions in PBS. The trypsin-EDTA was replaced by 1% FBS in PBS (to block the enzymatic activity of trypsin), in which the explants were incubated for 15 min. Cartilage explants were washed with PBS (3x 5 min). Three explants/condition were divided over sterile FACS tubes and exposed 4 µg/ml DTPA-IrDye 800CW isotype (2.201a) (substitution ratio IrDye 800CW= 1.54) or DTPA-IrDye 800CW anti-COLL II antibody (MQ4.112 hz3_1) (substitution ratio IrDye 800CW= 1.83) in DMEM/F12 media supplemented with 0.5% BSA (final volume was 1 ml) for 4 H on a roller at 37°C. […]
The explants were transferred to the bottom of wells of a 96-well plate to image with the Odyssey CLX near infrared imaging system. The fluorescent signal was measured in manually drawn ROI around the cartilage explants which was corrected for background signal by the software. […]

T2 sequence (P02458 182-1241 limits assumed): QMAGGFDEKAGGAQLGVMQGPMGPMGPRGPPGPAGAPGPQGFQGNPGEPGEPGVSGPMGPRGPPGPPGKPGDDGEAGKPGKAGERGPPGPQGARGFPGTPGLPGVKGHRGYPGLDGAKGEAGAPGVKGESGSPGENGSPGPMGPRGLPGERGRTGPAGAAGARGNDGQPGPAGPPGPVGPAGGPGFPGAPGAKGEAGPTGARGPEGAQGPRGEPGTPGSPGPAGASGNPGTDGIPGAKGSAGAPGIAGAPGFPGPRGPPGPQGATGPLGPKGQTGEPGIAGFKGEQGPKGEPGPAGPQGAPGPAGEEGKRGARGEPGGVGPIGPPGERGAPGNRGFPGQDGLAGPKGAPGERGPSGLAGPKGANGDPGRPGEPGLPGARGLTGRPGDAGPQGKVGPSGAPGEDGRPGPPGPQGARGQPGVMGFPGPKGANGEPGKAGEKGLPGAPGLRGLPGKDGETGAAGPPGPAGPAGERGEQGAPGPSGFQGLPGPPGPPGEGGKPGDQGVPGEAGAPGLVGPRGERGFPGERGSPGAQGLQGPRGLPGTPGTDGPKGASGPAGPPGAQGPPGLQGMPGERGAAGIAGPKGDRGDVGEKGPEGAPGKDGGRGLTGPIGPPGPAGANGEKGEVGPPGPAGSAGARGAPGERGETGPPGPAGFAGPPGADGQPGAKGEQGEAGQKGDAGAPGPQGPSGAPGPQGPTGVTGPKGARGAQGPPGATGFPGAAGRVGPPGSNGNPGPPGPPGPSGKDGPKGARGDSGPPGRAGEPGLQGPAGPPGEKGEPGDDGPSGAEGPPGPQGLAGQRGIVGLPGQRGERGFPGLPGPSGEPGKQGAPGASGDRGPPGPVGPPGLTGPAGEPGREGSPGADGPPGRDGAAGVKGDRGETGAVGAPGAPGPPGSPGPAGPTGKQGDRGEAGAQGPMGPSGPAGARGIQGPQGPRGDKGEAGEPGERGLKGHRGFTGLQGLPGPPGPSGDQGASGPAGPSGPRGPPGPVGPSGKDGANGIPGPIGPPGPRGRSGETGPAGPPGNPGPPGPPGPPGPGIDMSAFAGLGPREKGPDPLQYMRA
T1 sequence (P02458 182-1241 limits assumed): as above

| Molecule | cartilage associated radioactivity corrected for their weight, trypsin-damaged human cartilage compared to non-treated explants (human cartilage explants [1]; 4 µg/ml, 1.5 H, 37°C) | cartilage associated radioactivity/gram in trypsin-damaged human cartilage compared to isotype (human cartilage explants [1]; p<0.001, One-way ANOVA) | localization of the fluorescent signal in sections of the explants (human cartilage; Figure 11 bottom, compared with SafO staining) | binding (fluorescent signal) to cartilage when OA-damage increases (human cartilage; macroscopically preserved, medium damage and severe damaged regions, 4 µg/ml, 4 H, Figure 11, listed as DTPA-IrDye 800CW anti-COLL II antibody) | binding (fluorescent signal) to trypsin-induced damaged human cartilage explants compared to untreated explants (human cartilage explants [2]) |
| --- | --- | --- | --- | --- | --- |
| B1 | higher | higher |  |  |  |
| B2 |  |  | localizes on the spots where visible cartilage damage is present | binds more; also recorded: increases | increased binding; also recorded: increases |
